Biological target: T1, Aquaporin Z with a C-terminal Strep-tag II (AqpZ-STII) (Escherichia coli), P60844
T1 chain: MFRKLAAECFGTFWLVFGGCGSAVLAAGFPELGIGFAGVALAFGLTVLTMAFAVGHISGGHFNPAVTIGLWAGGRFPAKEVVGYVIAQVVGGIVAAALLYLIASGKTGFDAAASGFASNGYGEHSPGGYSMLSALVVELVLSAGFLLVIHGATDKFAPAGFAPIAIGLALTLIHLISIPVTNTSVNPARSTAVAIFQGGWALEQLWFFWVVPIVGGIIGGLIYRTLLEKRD
Assay: native MS
Settings: remark: other sources report otherwise

B1: Aquaporin Z with a C-terminal Strep-tag II (AqpZ-STII), P60844 1-231 (natural protein)
chain: T1 chain
Q: B1 was tested. Which stoichiometry N did it give?
A: 4
